Drawing on paper PMC2918618, “Characterization of the TnsD-attTn7 complex that promotes site-specific insertion of Tn7” (Mobile DNA, 2010), this text covers binding signal (relative to wt site) and β-galactosidase activity for 17 molecules.

Data set [1] has as its target T1, TnsD wt (Escherichia coli (transposon Tn7)) (UniProt P13991).
T1 sequence: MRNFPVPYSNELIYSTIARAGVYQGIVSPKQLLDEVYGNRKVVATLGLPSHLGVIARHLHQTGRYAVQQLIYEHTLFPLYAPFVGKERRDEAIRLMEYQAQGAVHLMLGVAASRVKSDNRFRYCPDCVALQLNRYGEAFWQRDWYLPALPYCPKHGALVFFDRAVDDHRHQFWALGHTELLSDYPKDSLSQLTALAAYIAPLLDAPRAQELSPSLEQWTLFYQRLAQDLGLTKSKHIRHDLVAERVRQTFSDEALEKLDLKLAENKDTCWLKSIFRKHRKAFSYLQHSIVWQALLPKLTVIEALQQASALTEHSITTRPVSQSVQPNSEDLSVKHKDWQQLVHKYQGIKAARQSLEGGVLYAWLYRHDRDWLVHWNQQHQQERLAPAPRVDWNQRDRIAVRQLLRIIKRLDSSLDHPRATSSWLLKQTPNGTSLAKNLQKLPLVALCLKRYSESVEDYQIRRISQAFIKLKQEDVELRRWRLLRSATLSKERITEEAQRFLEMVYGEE
The data set can be described thus: EMSA. The conditions noted are these: Gel-shift buffer not given (as described in ref. 6); TnsD stored in 500 mM KCl, 50 mM Tris-HCl pH 8.0, 1 mM EDTA, 2 mM DTT, 25% glycerol.

The target in data set [2] is Jun. The data set can be described thus: two-hybrid; yeast two-hybrid (ProQuest Two-Hybrid System); TnsD in pDBLeu (Gal4-DB), TnsC in pPC86 (Gal4-AD); read-out β-galactosidase activity; empty vectors gave 0.075.
Data set [3] concerns the target RB. The data set is described as above.
The target in data set [4] is T2, TnsD (1 to 507) wt (E. coli (transposon Tn7), UniProt P13991 1-508).
T2 construct: TnsD, target site-selector protein of the bacterial transposon Tn7, residues 1 to 507 (full-length TnsD is 507 aa); TnsD was cloned into pDBLeu (ProQuest Two-Hybrid System); also called full-length TnsD; source: yeast two-hybrid fusion
T2 sequence (looked up): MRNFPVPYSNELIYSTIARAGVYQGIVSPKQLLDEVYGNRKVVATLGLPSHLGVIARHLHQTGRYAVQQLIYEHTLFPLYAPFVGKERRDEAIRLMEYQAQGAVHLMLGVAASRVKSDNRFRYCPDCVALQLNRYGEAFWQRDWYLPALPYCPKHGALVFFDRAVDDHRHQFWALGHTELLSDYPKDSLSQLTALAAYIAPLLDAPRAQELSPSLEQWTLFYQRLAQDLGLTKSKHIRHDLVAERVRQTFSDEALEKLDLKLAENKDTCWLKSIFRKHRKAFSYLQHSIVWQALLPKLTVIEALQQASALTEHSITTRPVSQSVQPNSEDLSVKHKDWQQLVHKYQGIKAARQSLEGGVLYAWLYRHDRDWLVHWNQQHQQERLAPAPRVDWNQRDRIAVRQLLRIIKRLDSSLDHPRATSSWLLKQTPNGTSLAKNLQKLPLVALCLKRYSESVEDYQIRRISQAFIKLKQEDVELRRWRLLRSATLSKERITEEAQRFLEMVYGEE
The data set is described as above. The conditions noted are these: partners not purified.

For data set [5], the target named is T3, TnsD (1 to 399) (E. coli (transposon Tn7), UniProt P13991 1-399).
T3 construct: TnsD of transposon Tn7, residues 1 to 399; source: yeast two-hybrid fusion
T3 sequence (looked up): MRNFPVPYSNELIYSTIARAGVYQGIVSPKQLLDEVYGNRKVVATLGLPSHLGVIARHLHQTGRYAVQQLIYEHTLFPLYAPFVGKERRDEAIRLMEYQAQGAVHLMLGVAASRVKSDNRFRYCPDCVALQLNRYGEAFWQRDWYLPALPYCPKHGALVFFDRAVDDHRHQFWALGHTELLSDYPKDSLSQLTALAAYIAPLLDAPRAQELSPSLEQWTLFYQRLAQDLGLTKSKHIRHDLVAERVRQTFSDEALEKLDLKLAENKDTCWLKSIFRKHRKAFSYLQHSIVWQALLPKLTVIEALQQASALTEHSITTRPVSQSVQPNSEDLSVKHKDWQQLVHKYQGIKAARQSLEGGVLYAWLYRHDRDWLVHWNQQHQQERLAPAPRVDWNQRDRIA
The data set is described as above. The conditions noted are these: partners not purified.

Data set [6] concerns the target T4, TnsD (1 to 375) (E. coli (transposon Tn7), UniProt P13991 1-375).
T4 construct: TnsD of transposon Tn7, residues 1 to 375; source: yeast two-hybrid fusion
T4 sequence (looked up): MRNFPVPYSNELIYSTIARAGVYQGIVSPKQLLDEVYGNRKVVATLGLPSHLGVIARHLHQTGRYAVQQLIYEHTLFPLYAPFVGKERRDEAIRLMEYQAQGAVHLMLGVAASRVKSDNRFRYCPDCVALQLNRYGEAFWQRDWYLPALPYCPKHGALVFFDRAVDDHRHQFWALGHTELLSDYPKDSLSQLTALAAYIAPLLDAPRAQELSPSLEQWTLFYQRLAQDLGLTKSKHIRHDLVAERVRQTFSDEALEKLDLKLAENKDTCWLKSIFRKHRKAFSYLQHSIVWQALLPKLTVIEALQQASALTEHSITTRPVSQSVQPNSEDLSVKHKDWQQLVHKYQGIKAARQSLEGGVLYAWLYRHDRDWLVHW
The data set is described as above. The settings on record: partners not purified.

Data set [7] deals with T5, TnsD (1 to 350) (E. coli (transposon Tn7), UniProt P13991 1-350).
T5 construct: TnsD of transposon Tn7, residues 1 to 350; source: yeast two-hybrid fusion
T5 sequence (looked up): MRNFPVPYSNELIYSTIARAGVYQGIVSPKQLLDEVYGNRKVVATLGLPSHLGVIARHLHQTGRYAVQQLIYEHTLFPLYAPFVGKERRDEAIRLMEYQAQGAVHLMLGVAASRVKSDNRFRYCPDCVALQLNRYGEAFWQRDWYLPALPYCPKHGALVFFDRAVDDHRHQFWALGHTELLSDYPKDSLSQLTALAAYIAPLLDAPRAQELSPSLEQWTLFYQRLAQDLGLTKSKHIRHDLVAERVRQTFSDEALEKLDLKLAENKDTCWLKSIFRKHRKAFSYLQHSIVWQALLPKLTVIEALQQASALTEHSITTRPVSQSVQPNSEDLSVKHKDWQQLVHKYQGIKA
Described as above. The settings on record: partners not purified.

The target of data set [8] is T6, TnsD (1 to 309) (E. coli (transposon Tn7), UniProt P13991 1-309).
T6 construct: TnsD of transposon Tn7, residues 1 to 309; source: yeast two-hybrid fusion
T6 sequence (looked up): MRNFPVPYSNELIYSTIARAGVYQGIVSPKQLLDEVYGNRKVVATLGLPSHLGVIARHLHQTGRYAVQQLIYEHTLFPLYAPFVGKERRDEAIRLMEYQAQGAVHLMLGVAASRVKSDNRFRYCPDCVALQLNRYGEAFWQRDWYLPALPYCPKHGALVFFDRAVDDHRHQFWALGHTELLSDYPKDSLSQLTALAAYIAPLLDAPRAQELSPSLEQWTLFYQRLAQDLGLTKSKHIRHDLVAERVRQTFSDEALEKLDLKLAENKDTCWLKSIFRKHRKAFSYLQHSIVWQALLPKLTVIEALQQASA
Described as above. The conditions noted are these: partners not purified.

Sequence of RB (P06400 2-928): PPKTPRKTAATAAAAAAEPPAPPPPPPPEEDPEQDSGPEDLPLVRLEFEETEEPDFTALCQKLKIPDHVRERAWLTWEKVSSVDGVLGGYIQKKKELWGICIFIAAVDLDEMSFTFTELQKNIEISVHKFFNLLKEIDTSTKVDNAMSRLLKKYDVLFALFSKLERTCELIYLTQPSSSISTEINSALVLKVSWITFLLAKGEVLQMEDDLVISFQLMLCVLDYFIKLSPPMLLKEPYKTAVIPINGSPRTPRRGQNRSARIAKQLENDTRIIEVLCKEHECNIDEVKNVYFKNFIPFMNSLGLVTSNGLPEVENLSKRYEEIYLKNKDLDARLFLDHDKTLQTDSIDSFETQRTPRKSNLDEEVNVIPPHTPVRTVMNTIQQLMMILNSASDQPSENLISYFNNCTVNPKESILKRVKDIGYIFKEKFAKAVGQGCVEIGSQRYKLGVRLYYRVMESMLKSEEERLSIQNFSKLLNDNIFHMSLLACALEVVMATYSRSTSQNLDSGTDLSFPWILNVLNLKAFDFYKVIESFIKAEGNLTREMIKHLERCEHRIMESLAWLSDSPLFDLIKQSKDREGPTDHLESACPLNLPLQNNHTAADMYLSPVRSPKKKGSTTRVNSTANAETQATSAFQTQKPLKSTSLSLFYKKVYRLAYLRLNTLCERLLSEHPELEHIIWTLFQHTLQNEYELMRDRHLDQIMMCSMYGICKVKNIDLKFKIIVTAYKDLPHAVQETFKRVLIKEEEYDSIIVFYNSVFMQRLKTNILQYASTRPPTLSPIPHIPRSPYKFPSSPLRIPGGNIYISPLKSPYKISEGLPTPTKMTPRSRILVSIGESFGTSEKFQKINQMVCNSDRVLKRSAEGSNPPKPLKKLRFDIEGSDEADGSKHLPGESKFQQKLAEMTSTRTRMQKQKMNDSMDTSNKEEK
Sequence of Jun (P05627 whole entry, the tested form may be a part): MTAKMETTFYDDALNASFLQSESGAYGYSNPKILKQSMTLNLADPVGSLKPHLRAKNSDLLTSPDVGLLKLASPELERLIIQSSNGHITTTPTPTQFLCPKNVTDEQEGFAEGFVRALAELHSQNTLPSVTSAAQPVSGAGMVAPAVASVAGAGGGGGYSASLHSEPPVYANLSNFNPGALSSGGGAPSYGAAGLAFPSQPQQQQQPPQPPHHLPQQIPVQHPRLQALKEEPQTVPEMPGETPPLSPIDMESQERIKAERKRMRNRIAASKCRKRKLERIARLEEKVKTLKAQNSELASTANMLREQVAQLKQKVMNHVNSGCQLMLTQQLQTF

As for “CCGCTTAACCTGGCAAAATCGGTTACGGTTGAGTAA (double strand) [attTn7 +54 mutant]”, the binding signal (relative to wt site) in data set [1] was under 0.2.

On to “CCGCGTAACCTGGCAAAATCGGTTACGTTTGAGTAA (double strand) [attTn7 +31 mutant]”, for which the binding signal (relative to wt site) in data set [1] was under 0.2.

“CCGCGTAACCGGGCAAAATCGGTTACGGTTGAGTAA (double strand) [attTn7 +48 mutant]”: the binding signal (relative to wt site) in data set [1] worked out at 0.5. Take “CCGCGTAACCTGGCAAAATCGGTTACGGGTGAGTAA (double strand) [attTn7 +30 mutant]”: in data set [1], the binding signal (relative to wt site) came out at 0.5. In the case of Fos (natural protein), the β-galactosidase activity in data set [2] is 5.

For “CCGCGTACCCTGGCAAAATCGGTTACGGTTGAGTAA (double strand) [attTn7 +51 mutant]”, in data set [1], the binding signal (relative to wt site) was under 0.2. On to E2F1 (natural protein), for which, in data set [3], the β-galactosidase activity was 1.

For “CCGCGTAACCTGGCAAAATCGTTTACGGTTGAGTAA (double strand) [attTn7 +37 mutant]”, the binding signal (relative to wt site) in data set [1] came out at 0.5. Same read-out and setting: the figure for “CCGCGTAACCTGGCAAAATCGGTTAAGGTTGAGTAA (double strand) [attTn7 +33 mutant]” is under 0.2; for “CCGCGTCACCTGGCAAAATCGGTTACGGTTGAGTAA (double strand) [attTn7 +52 mutant]” it is 0.5; for “CCGCGTAACCTGGCACAATCGGTTACGGTTGAGTAA (double strand) [attTn7 +43 mutant]” it is under 0.2. Still for that read-out and setting: the figure for “CCGCGTAACCTGGAAAAATCGGTTACGGTTGAGTAA (double strand) [attTn7 +45 mutant]” is under 0.2. The same measure, in the same setting: the figure for “CCGCGTAACCTGGCAACATCGGTTACGGTTGAGTAA (double strand) [attTn7 +42 mutant]” is under 0.2.

B1: TnsC (1 to 293) (domain or fragment, E. coli (transposon Tn7), UniProt P05846 1-293, looked up)
chain: MSATRIQAVYRDTGVEAYRDNPFIEALPPLQESVNSAASLKSSLQLTSSDLQKSRVIRAHTICRIPDDYFQPLGTHLLLSERISVMIRGGYVGRNPKTGDLQKHLQNGYERVQTGELETFRFEEARSTAQSLLLIGCSGSGKTTSLHRILATYPQVIYHRELNVEQVVYLKIDCSHNGSLKEICLNFFRALDRALGSNYERRYGLKRHGIETMLALMSQIANAHALGLLVIDEIQHLSRSRSGGSQEMLNFFVTMVNIIGVPVMLIGTPKAREIFEADLRSARRGAGFGAIFW
notes: TnsC of transposon Tn7, residues 1 to 293; source: yeast two-hybrid fusion
B1: the β-galactosidase activity in data set [4] amounted to 0.2.

B2: TnsC (1 to 480) (domain or fragment, E. coli (transposon Tn7), UniProt P05846 1-480, looked up)
chain: MSATRIQAVYRDTGVEAYRDNPFIEALPPLQESVNSAASLKSSLQLTSSDLQKSRVIRAHTICRIPDDYFQPLGTHLLLSERISVMIRGGYVGRNPKTGDLQKHLQNGYERVQTGELETFRFEEARSTAQSLLLIGCSGSGKTTSLHRILATYPQVIYHRELNVEQVVYLKIDCSHNGSLKEICLNFFRALDRALGSNYERRYGLKRHGIETMLALMSQIANAHALGLLVIDEIQHLSRSRSGGSQEMLNFFVTMVNIIGVPVMLIGTPKAREIFEADLRSARRGAGFGAIFWDPIQQTQRGKPNQEWIAFTDNLWQLQLLQRKDALLSDEVRDVWYELSQGVMDIVVKLFVLAQLRALALGNERITAGLLRQVYQDELKPVHPMLEALRSGIPERIARYSDLVVPEIDKRLIQLQLDIAAIQEQTPEEKALQELDTEDQRHLYLMLKEDYDSSLLIPTIKKAFSQNPTMTRQKLLPLVL
notes: TnsC of transposon Tn7, residues 1 to 480; also called TnsC with deletion of 75 amino acids from the C terminus; source: yeast two-hybrid fusion
As for B2, the β-galactosidase activity in data set [4] was determined as 1.

B3: TnsC (1 to 384) (domain or fragment, E. coli (transposon Tn7), UniProt P05846 1-384, looked up)
chain: MSATRIQAVYRDTGVEAYRDNPFIEALPPLQESVNSAASLKSSLQLTSSDLQKSRVIRAHTICRIPDDYFQPLGTHLLLSERISVMIRGGYVGRNPKTGDLQKHLQNGYERVQTGELETFRFEEARSTAQSLLLIGCSGSGKTTSLHRILATYPQVIYHRELNVEQVVYLKIDCSHNGSLKEICLNFFRALDRALGSNYERRYGLKRHGIETMLALMSQIANAHALGLLVIDEIQHLSRSRSGGSQEMLNFFVTMVNIIGVPVMLIGTPKAREIFEADLRSARRGAGFGAIFWDPIQQTQRGKPNQEWIAFTDNLWQLQLLQRKDALLSDEVRDVWYELSQGVMDIVVKLFVLAQLRALALGNERITAGLLRQVYQDELKPVHP
notes: TnsC of transposon Tn7, residues 1 to 384; also called TnsC with deletion of 171 amino acids from the C terminus; source: yeast two-hybrid fusion
For the molecule B3, the β-galactosidase activity in data set [4] amounted to 1.

B4: TnsC (1 to 555) wt (natural protein, E. coli (transposon Tn7), UniProt P05846 1-555, looked up)
chain: MSATRIQAVYRDTGVEAYRDNPFIEALPPLQESVNSAASLKSSLQLTSSDLQKSRVIRAHTICRIPDDYFQPLGTHLLLSERISVMIRGGYVGRNPKTGDLQKHLQNGYERVQTGELETFRFEEARSTAQSLLLIGCSGSGKTTSLHRILATYPQVIYHRELNVEQVVYLKIDCSHNGSLKEICLNFFRALDRALGSNYERRYGLKRHGIETMLALMSQIANAHALGLLVIDEIQHLSRSRSGGSQEMLNFFVTMVNIIGVPVMLIGTPKAREIFEADLRSARRGAGFGAIFWDPIQQTQRGKPNQEWIAFTDNLWQLQLLQRKDALLSDEVRDVWYELSQGVMDIVVKLFVLAQLRALALGNERITAGLLRQVYQDELKPVHPMLEALRSGIPERIARYSDLVVPEIDKRLIQLQLDIAAIQEQTPEEKALQELDTEDQRHLYLMLKEDYDSSLLIPTIKKAFSQNPTMTRQKLLPLVLQWLMEGETVVSELEKPSKSKKVSAIKVVKPSDWDSLPDTDLRYIYSQRQPEKTMHERLKGKGVIVDMASLFKQAG
notes: TnsC, transposition protein of the bacterial transposon Tn7, residues 1 to 555 (full-length is 555 aa); TnsC was cloned into pPC86 (ProQuest Two-Hybrid System); also called full-length TnsC; source: yeast two-hybrid fusion
For the molecule B4, the β-galactosidase activity was 1 in data set [4]; 4.5 in data set [5]; 5 in data set [6]; 4.5 in data set [7]; 4.5 in data set [8].
